The source of these data is patent US20200164029A1 (ACCELERON PHARMA, published 2020).

One experiment has as its target T1, hENG(26-329)-hFc (human, UniProt P17813 26-329).
T1 construct: not shown: human IgG1 Fc domain
T1 sequence: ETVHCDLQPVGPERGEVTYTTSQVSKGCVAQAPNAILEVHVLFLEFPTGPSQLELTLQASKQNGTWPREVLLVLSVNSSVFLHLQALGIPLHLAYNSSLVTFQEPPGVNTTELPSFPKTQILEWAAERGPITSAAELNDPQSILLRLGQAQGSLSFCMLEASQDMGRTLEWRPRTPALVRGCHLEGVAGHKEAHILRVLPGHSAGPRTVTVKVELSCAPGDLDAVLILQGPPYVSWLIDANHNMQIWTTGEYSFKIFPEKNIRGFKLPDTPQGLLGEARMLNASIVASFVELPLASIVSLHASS
In words: SPR, captured hENG-hFc, soluble ligand.

The target of another experiment is T2, hENG(360-581)-hFc (human, UniProt P17813 360-581).
T2 construct: not shown: human IgG1 Fc domain
T2 sequence: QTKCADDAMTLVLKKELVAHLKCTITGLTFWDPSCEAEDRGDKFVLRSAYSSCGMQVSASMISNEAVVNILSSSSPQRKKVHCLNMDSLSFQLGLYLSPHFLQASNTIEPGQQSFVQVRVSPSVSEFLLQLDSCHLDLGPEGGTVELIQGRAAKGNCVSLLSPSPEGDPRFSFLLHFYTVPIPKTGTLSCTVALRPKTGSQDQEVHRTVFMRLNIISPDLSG
In words: SPR, captured hENG-hFc, soluble ligand.

Another experiment addresses T3, hENG(26-581)-hFc (human, UniProt P17813 26-581).
T3 construct: not shown: human IgG1 Fc domain
T3 sequence: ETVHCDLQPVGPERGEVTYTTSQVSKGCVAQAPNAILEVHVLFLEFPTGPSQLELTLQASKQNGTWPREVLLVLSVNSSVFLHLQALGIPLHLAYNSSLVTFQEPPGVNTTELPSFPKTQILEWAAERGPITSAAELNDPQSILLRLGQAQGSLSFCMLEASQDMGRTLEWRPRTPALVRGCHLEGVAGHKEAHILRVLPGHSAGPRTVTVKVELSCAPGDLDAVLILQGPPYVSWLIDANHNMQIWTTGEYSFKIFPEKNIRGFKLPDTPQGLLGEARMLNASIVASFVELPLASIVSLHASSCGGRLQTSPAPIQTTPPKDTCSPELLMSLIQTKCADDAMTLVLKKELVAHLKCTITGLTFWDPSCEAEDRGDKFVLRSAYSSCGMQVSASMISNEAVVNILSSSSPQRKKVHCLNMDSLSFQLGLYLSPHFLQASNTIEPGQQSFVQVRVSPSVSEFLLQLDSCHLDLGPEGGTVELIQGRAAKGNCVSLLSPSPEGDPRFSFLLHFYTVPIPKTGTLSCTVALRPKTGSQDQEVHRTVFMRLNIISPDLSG
In words: SPR, captured hENG-hFc, ligand at 100 nM; ++++ = KD < 1 nM.

Experiment [1] addresses T4, hENG(26-586) (R&D Systems, catalog #1097-EN) (human, UniProt P17813 26-586).
T4 construct: also called soluble human ENG extracellular domain
T4 sequence: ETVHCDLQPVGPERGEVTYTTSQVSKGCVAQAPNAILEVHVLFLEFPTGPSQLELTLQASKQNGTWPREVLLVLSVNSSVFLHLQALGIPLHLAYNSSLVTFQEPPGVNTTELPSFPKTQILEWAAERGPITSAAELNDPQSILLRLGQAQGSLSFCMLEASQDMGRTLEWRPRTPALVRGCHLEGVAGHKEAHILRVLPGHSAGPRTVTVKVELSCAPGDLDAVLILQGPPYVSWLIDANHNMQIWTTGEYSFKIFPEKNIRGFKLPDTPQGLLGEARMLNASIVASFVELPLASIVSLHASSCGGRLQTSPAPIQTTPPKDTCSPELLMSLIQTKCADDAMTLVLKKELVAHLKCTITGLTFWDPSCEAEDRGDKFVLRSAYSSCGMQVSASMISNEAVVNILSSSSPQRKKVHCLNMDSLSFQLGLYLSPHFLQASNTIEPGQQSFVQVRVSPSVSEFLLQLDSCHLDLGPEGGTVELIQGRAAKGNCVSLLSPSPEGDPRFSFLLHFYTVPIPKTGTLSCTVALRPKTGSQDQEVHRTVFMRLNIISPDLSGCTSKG
In words: SPR competition in solution: 0-50 nM hENG(26-586) premixed with 10 nM BMP-10, binding of BMP-10 to captured ALK1-hFc read out. The text has this: (§1) BMP-9 and BMP-10 are high-affinity ligands at the type I receptor ALK1 (activin receptor-like kinase 1). […] Similar results were obtained with BMP-10 (FIG. 21).

The target in experiment [2] is T4, hENG(26-586) (R&D Systems, catalog …). In words: SPR competition in solution: 0-50 nM hENG(26-586) premixed with 10 nM BMP-9, binding of BMP-9 to captured ALK1-hFc read out.
Text: as §1

B1: human BMP-10 (ligand, UniProt O95393 317-424, looked up)
chain: NAKGNYCKRTPLYIDFKEIGWDSWIIAPPGYEAYECRGVCNYPLAEHLTPTKHAIIQALVHLKNSQKASKACCVPTKLEPISILYLDKGVVTYKFKYEGMAVSECGCR
notes: also called hBMP-10
Regarding B1, the binding result in the experiment with hENG(26-329)-hFc is listed as “no binding (tested: 100 nM)”; with hENG(360-581)-hFc it was “no binding (tested: 100 nM)”; with hENG(26-581)-hFc, “binds”; in experiment [1], “binds”.

B2: human BMP-9 (ligand, UniProt Q9UK05 320-429, looked up)
chain: SAGAGSHCQKTSLRVNFEDIGWDSWIIAPKEYEAYECKGGCFFPLADDVTPTKHAIVQTLVHLKFPTKVGKACCVPTKLSPISVLYKDDMGVPTLKYHYEGMSVAECGCR
notes: also called hBMP-9
Turning to B2, the binding result with hENG(26-329)-hFc is “no binding (tested: 100 nM)”; in the experiment with hENG(360-581)-hFc, “no binding (tested: 100 nM)”; with hENG(26-581)-hFc it was “binds”; in experiment [2] it was “binds”.
